The source of these data is US20060235215A1 (published 2006).

Experiment in all cases: yeast two-hybrid
The target of experiment [1] is T1, O. sativa Calreticulin Precursor, bait fragment aa 1-150 (Oryza sativa, UniProt Q9SLY8 1-150).
T1 construct: bait; also called OsCRTC; PN20544

Experiment [2] has as its target T2, O. sativa Chitinase, Class III, bait fragment aa 10-200 (Oryza sativa).
T2 construct: bait; also called OsCHIB1; PN19651
T2 chain: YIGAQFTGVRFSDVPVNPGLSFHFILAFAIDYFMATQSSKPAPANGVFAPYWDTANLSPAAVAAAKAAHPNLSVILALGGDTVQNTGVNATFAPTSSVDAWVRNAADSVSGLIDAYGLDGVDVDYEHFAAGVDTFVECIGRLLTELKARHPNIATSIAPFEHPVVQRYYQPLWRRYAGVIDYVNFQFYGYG
How it is done: (§1) Yeast carrying the target gene construct was combined with yeast carrying the activation domain library. The two yeast strains mated to form diploid yeast and were plated on media that selected for expression of one or more Ga14p-responsive reporter genes. Thus, both hybrid proteins (i.e., the target “bait” protein and the activation domain “prey” protein) were expressed in a yeast reporter strain where an interaction between the test proteins results in transcription of the reporter genes […]. Colonies that arose after incubation were selected for further characterization. The activation domain plasmid was isolated from each colony obtained in the two-hybrid search. The sequence of the insert in this construct was obtained by sequence analysis (e.g., Sanger's dideoxy nucleotide chain termination method; see Ausubel et al., 1988, including updates up to 2002). Thus, the identity of positives obtained from these searches was determined by sequence analysis against proprietary and public (e.g., GENBANK®) nucleic acid and protein databases.
This example provides newly characterized rice proteins interacting with a rice chitinase, class III (OsCHIB1), and with rice cellulose synthase catalytic subunit, RSW1-like (OsCS). An automated, high-throughput yeast two-hybrid assay technology (provided by Myriad Genetics Inc., Salt Lake City, Utah) was used to search for protein interactions with the chitinase and cellulose synthase bait proteins.

Experiment [3] has as its target T3, O. sativa Serine/Threonine Protein Phosphatase PP2A-2, Catalytic Subunit, bait fragment aa 1-308 (Oryza sativa, UniProt A2XN40 1-307).
T3 construct: bait; also called OsPP2A-2; PN20254

For experiment [4], the target named is T4, OsSGT1, bait fragment aa 200-368 (Oryza sativa, UniProt Q0JL44 200-367).
T4 construct: bait; also called PN20285
T4 sequence: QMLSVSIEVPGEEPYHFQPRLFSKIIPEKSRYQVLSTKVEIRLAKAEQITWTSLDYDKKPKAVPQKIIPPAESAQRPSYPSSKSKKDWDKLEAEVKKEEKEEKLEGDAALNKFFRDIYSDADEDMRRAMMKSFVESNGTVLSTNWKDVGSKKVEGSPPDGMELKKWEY
How it is done: as §1
The rice SGT1 protein shares 74 and 75% amino acid sequence similarity with two Arabidopsis thaliana SGT1 homologs and 45% amino acid sequence similarity with Saccharomyces cerevisiae SGT1. In yeast, SGT1 is required for cell-cycle progression at the G1/S-phase and G2/M-phase transitions. In A. thaliana, SGT1b interacts with Rar1 and mediates disease resistance. Thus, in plants, SGT1 likely controls processes that are fundamental to disease resistance and development. The rice OsSGT1 protein was chosen as a bait for these interaction studies based on its potential relevance to disease resistance and development.

T1 sequence (Q9SLY8 1-150): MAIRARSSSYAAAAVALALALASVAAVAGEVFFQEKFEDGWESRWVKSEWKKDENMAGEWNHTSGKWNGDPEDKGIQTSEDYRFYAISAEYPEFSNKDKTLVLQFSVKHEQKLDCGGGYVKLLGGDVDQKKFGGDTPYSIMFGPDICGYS
T3 sequence (A2XN40 whole entry, the tested form may be a part): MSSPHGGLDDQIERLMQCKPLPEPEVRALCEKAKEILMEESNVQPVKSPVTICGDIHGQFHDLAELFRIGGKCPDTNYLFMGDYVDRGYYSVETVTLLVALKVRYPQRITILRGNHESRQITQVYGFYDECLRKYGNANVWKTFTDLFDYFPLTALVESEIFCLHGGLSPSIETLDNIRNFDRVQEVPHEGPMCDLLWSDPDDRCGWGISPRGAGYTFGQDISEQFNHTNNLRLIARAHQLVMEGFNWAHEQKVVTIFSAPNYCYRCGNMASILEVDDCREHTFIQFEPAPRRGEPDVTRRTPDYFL

B1: Novel Protein PN29950, prey clone aa 50-343 (other)
chain: ASSRSEPVGLGGGLQPKRRSRTAKPPGSSSDTGEVVNSSRISNSQNAVSMGQQVLQALASQNTNVNRSHVTDSPLPSTTSQFSGGMPPRRQGGEGQVDFGSMISSVLNNPAFGNLLSNVAEQTGMGSAGDLRNMVEECAQSPAIMDTMSNLVQNVDGSGRGQGGIDLSRMMQQMMPVVSQVLGGAGARPAGTNSGQSRLQPRRSDMRVDDASDYGNSQIDLHQAREHIEQHDSPRDIFGAVLETAAQAYGEDESIEDMLEELVSDPELTDDYLKLLLQQVRQRIQSASQSGNQS
notes: prey; AD fusion; output trait library; also called OsPN29950
Regarding B1, in experiment [1], the binding result is “binds”.

B2: Novel Protein PN29950, prey clone aa 7-103 (other)
chain: TANLVGQITTTCTDDISVNRSAENSSQKNIPLDGVSAQSIKPSASSRSEPVGLGGGLQPKRRSRTAKPPGSSSDTGEVVNSSRISNSQNAVSMGQQV
notes: as for B1
For B2, the binding result in experiment [1] is listed as “binds”.

B3: Novel Protein PN22823, Similar to ABC Transporter Proteins, prey clone aa 25-106 (other)
chain: SSSGKKVPLFSLFRYADRLDVLLMVVGTVGALGNGISQPLMTVLFGNVINSFGANTSGSVLRSVTKVKVSCWTMAGERQSAR
notes: prey; AD fusion; input trait library; also called OsPN22823
As to B3, in experiment [2], the binding result was “binds”.

B4: Novel Protein PN22020, Fragment, Similar to A. thaliana Putative Protein, prey clone aa 76-170 (other)
chain: ANATDGVKPLVGSARLPLRDVLADTGIGARASRSLRLKRPSGRPHGRLEVRVAVREPKRYYDPSPAYPAPYHQQTNRDPYAYGNTTTGGYGYAYG
notes: prey; AD fusion; input trait library; three clones; also called OsPN22020
Turning to B4, in experiment [2], the binding result is listed as “binds”.

B5: Novel Protein PN26645, Putative Protein Disulfide Isomerase-Related Protein Precursor, prey clone aa 24-164 (other)
chain: PLPEACPVPTAAEEILGPGGTCTTLDRRGDPVGVIEGDEVTLAKAITLLHMNKDDYIAVLFYASWCPFSQECKPNFEILASLFPSIRHFAFEESSIRPSIISRYGIHGFPTLFLLNSTMRVRYHGPRTVKSLAAFYRDVSG
notes: prey; AD fusion; input trait library; also called OsPN26645
For B5, the binding result in experiment [3] is given as “binds”.

B6: OsSGT1, prey clone aa 9-227 (other)
chain: LESKAKAAFVDDDFELAAELYTQAIEASPATAELYADRAQAHIKLGNYTEAVADANKAIELDPSMHKAYLRKGAACIRLEEYQTAKAALELGYSFASGDSRFTRLMKECDERIAEELTEVPVKKAEDGAAAPSVASFVEEKDDAANMDNTPPMVEVKPKYRHDFYNSATEVVLTIFAKGVPAENVVVDFGEQMLSVSIEVPGEEPYHFQPRLFSKIIPE
notes: prey; AD fusion; output trait library; also called PN20285
Consider B6, for which the binding result in experiment [4] is on record as “binds”.

B7: Novel Protein PN29950, prey clone aa 138-343 (other)
chain: RRQGGEGQVDFGSMISSVLNNPAFGNLLSNVAEQTGMGSAGDLRNMVEECAQSPAIMDTMSNLVQNVDGSGRGQGGIDLSRMMQQMMPVVSQVLGGAGARPAGTNSGQSRLQPRRSDMRVDDASDYGNSQIDLHQAREHIEQHDSPRDIFGAVLETAAQAYGEDESIEDMLEELVSDPELTDDYLKLLLQQVRQRIQSASQSGNQS
notes: prey; AD fusion; output trait library; two clones; also called OsPN29950
On to B7, for which the binding result in experiment [1] is “binds”.

B8: Novel Protein PN29041, Fragment, Similar to A. thaliana Putative ATPase, prey clone aa 5-108 (other)
chain: VQIRRALRALVDDHTDGLMDFEDTEVRSSEETDALEEARLAIEQVVIPKGESVQLLPRPPSIIASQVDLVESFKLKWESIGQEPNACLRILPQFVGVEEGGKSV
notes: prey; AD fusion; input trait library; two clones; also called OsPN29041
Turning to B8, the binding result in experiment [2] is given as “binds”.

B9: Elicitor responsive protein, prey clone aa 54-144 (other)
chain: ETFMFSVTHNATELIIKLMDSDSGTDDDFVGEATISLEAIYTEGSIPPTVYNVVKEEEYRGEIKVGLTFTPEDDRDRGLSEEDIGGWKQSS
notes: prey; AD fusion; input trait library; also called OsERP; PN20696
For the molecule B9, the binding result in experiment [4] is on record as “binds”.

B10: HSP70-like PN23949, prey clone aa 244-418 (other)
chain: HKLKSSLILMPMVSLLLLLLIRVLGRNRISPSPALSTLPKDEVERMVEEADKFAQEDKEKRDAIDTKNQADSVVYQTEKQLKELGDKVPAPVKEKVDAKLNELKEAIAGGSTQSMKDAMAALNEEVMQIGQAMYNQQPNAGAAGPTPGADAGPTSSGGKGPNDGDVIDADFTDSN
notes: prey; AD fusion; output trait library
On to B10, for which, in experiment [4], the binding result is listed as “binds”.

B11: Novel Protein PN22020, Fragment, Similar to A. thaliana Putative Protein, prey clone aa 128-170 (other)
chain: AVREPKRYYDPSPAYPAPYHQQTNRDPYAYGNTTTGGYGYAYG
notes: prey; AD fusion; input trait library; also called OsPN22020
B11: the binding result in experiment [2] was “binds”.
